Laboratory results from paper PMC9062740.
Where a chain is given by its changes, count along the chain named. In names and notes the source's numbering stands.

B1: CLIP-170 CG2 fragment (206-288), P30622 K238A (protein)
chain: KKGERELKIGDRVLVGGTKAGVVRFLGETDFAAGEWCGVELDEPLGKNDGAVAGTRYFQCQPKYGLFAPVHKVTKIGFPSTTP
B2: CLIP-170 CG2 fragment (206-288), P30622 K224A (protein)
chain: B1 chain with K19A, A33K
B3: CLIP-170 CG2 fragment (206-288), P30622 K277A (protein)
chain: B1 chain with A33K, K72A
B4: CLIP-170 CG2 fragment (206-288), P30622 N253A (protein)
chain: B1 chain with A33K, N48A
B5: CLIP-170 CG2 fragment (206-288), P30622 K252A (protein)
chain: B1 chain with A33K, K47A
B6: CLIP-170 CG2 fragment (206-288), P30622 K252E; N253D (protein)
chain: B1 chain with A33K, K47E, N48D
B7: CLIP-170 CG1 fragment (58-140), P30622 K98E (protein)
chain: FRVGERVWVNGNKPGFIQFLGETQFAPGQWAGIVLDEPIGENDGSVAGVRYFQCEPLKGIFTRPSKLTRKVQAEDEANGLQTT
B8: CLIP-170 CG1 fragment (58-140), P30622 K98E; N99D (protein)
chain: B7 chain with N42D
B9: CLIP-170 CG1 fragment (58-140), P30622 K123A (protein)
chain: B7 chain with E41K, K66A

Molecular target: taxol-stabilized microtubules polymerized from porcine brain tubulin, P02550
Sequence (P02550 whole entry, chain 1 of 2): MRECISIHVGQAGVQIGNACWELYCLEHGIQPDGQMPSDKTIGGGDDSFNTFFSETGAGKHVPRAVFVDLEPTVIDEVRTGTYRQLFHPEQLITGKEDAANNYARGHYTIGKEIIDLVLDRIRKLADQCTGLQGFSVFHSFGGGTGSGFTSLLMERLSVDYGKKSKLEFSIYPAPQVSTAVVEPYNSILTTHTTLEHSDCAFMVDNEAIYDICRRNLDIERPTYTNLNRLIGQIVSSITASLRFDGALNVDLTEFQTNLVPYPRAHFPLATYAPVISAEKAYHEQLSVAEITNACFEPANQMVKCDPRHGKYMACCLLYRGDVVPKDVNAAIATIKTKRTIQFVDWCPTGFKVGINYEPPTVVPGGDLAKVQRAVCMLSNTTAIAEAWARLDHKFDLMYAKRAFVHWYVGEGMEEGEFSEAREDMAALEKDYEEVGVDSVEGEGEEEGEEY
Sequence (chain, as listed by the source, chain 2 of 2): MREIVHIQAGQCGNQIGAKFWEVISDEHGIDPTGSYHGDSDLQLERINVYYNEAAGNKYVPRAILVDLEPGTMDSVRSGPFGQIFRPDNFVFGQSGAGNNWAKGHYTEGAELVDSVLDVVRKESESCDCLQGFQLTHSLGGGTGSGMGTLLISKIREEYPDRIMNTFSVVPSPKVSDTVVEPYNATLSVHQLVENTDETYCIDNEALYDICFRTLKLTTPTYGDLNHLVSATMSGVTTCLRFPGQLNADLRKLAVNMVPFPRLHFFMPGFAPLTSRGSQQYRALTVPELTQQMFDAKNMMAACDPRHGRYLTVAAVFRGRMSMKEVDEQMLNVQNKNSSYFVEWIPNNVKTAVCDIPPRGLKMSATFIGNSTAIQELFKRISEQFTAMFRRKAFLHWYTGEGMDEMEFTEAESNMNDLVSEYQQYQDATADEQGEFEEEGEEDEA
Experiment: MT-binding assay (cosedimentation)
Settings: chain shown with the change, […] taxol–MTs, parent: est. 1.0, read off a plot

Binder	ratio to parent (5 μM CG2 mutant)	ratio to parent (5 μM CG1 mutant)
B1	0.97	
B2	0.4	
B3	0.75	
B4	0.8	
B5	0.28	
B6	0.23	
B7		0.28
B8		0.42
B9		0.52
